The target in this assay is human NPY2 receptor (HEK293/hNPY2R cells) (human) (UniProt P49146). As to the kind of experiment: cell-based or functional assay.
Sequence of human NPY2 receptor (HEK293/hNPY2R cells) (human) (P49146 whole entry): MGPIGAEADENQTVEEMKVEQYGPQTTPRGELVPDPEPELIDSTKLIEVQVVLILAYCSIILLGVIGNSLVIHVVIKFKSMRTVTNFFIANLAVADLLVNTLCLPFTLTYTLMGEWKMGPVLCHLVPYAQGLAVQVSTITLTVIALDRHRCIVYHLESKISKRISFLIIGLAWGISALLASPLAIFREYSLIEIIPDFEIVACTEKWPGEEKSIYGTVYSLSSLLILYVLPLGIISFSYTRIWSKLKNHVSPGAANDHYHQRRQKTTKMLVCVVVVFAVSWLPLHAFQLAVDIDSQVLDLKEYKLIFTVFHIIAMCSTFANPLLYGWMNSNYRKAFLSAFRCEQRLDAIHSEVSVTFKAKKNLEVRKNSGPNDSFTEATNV

Sequence of PYY(3-36) wild-type (peptide; modification not given) (chain, as listed by the source): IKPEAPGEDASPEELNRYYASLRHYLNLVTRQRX

As to “PYY(3-36) wild-type (peptide; modification not given)”, the EC50 [nM], cAMP assay (inhibition of Forskolin stimulated cAMP accumulation in HEK293/hNPY2R cells), day 1 is 0.09 nM and the EC50 [nM], cAMP assay (inhibition of Forskolin stimulated cAMP accumulation in HEK293/hNPY2R cells), day 2 stood at 0.1 nM.

Values taken from patent US20210069338A1.
